Test results reported in patent US20160185837A1, “GIP AND GLP-1 RECEPTOR DUAL-AGONISTS FOR THE TREATMENT OF DIABETES” (Medimmune Limited, priority 2013, published 2016).
Numbering of substitutions follows the chain as printed. Several values for one entry are separate records, joined by “and”; a condition that tells them apart may be missing. Identical values can stand only once.

B1: IP174 (Fc fusion)
chain: HGEGTFTSDVSSYLEEEAAKEFIAWLVAGGAAAGGSGSTASSGSGSATGGGGAATHTCPPCPAPEF
B2: IP193 (Fc fusion)
chain: HGEGTFTSDVSSYLEGQAAKEFIAWLVKGAAAGGSGSTASSGSGSATGGGGCPPCPAPEF
B3: IP231 (Fc fusion)
chain: HGEGTFTSDVSSYLEEQAAKEFIAWLVKGGGGGGSGGGGSGGGGSGGGGSATHTCPPC
B4: IP197 (Fc fusion)
chain: YSEGTFTSDVSSYMERQAIDEFIAWLLAGAAAGGSGSTASSGSGSATGGGGAATHTCPPCPAPEF
B5: IP199 (Fc fusion)
chain: B4 chain with Y1H, S2G, M14L, R16G, I19A, D20K
B6: IP233 (Fc fusion)
chain: B4 chain with Y1H, S2G, M14L, R16E, I19A, D20K, L27V, A28K
B7: IP171 (Fc fusion)
chain: B4 chain with D20S
B8: IP173 (Fc fusion)
chain: B4 chain with M14L, R16E, I19A, D20K
B9: IP208 (Fc fusion)
chain: B4 chain with M14L, R16G, I19A, D20K
B10: IP187 (Fc fusion)
chain: HGEGTFTSDVSSYLEGQAAKEFIAWLVKGAPPGGGGGSGGGGSGGGGSGGGGSATHTCPPCPAPEF
B11: IP188 (Fc fusion)
chain: YSEGTFISDYSIAMDKIHQQDFVNWLLAQKAPPGGGGGSGGGGSGGGGSGGGGSATHTCPPCPAPEF
B12: IP132 (Fc fusion)
chain: HGEGTFTSDVSSYLEGQAAKEFIAWLVKGGGGGGSGGGGSGGGGSGGGGSATHTCPPCPAPEF
B13: IP191 (Fc fusion)
chain: HGEGTFTSDVSSYLEGQAAKEFIAWLVKGAAAGGSGSTASSGSGSATGGGGAATYTCPPCPAPEF
B14: IP192 (Fc fusion)
chain: B13 chain with Y55S
B15: IP204 (Fc fusion)
chain: HGEGTFISDYSIAMDKIHQQDFVNWLLAQKAAAGGSGSTASSGSGSATGGGGAATHTCPPCPAPEF
B16: IP018 (Fc fusion)
chain: B15 chain with H1Y, G2S
B17: IP207 (Fc fusion)
chain: YAEGTFISDYSIAMDKIHQQDFVNWLLAQKGKKNDWKHNITQAAAGGSGSTASSGSGSATGGGGAATHTCPPCPAPELL
B18: IP146 (Fc fusion)
chain: HGEGTFTSDVSSYLEGQAAKEFIAWLVKGAAAGGSGSTASSGSGSATGGGGAACPPCPAPEF
B19: IP194 (Fc fusion)
chain: B18 chain with A52P, A53P
B20: IP238 (Fc fusion)
chain: HGEGTFTSDVSSYLEGQAAKEFIAWLVKGGGGGGSGGGGSGGGGSAESKYGPPCPPC
B21: IP196 (Fc fusion)
chain: HGEGTFTSDVSSYLEGQAAKEFIAWLVKGAAAGGSGSTASSGSGSATGGGGAPEF
B22: IP407 (Fc fusion)
chain: YSEGTFTSDYSKLLEEEAIRLFIEWLLAGGGGGGSGGGGSGGGGSGGGGSATHTCPPC
B23: IP420 (Fc fusion)
chain: B22 chain with I19T
B24: IP195 (Fc fusion)
chain: HGEGTFTSDVSSYLEGQAAKEFIAWLVKGAAAGGSGSTASSGSGSATGGGGESKYGPPCPPCPAPEF
B25: IP404 (Fc fusion)
chain: YSEGTFTSLYRIHKERQAIDEFIAKLLKGGGSGGGGSGGGGSGGGGSGGGGSGGGGSGGGGSGGGGSACPPC
B26: IP422 (Fc fusion)
chain: B25 chain with F6H, L9D, Y10L, H13L, K14L, K25F
B27: IP408 (Fc fusion)
chain: B25 chain with F6H, L9D, Y10L, H13L, K14L
B28: IP224 (Fc fusion)
chain: YSEGTFTSDVSSYMERQAIDEFIAWLLGGGAAAGGSGSTASSGSGSATGGGGAATHTCPPCPAPEF
B29: IP150 (Fc fusion)
chain: B1 chain with H1Y, G2S, E16G, E17Q, A32P, A33P
B30: IP176 (Fc fusion)
chain: B28 chain with D20S, G28K, G30P
B31: IP203 (Fc fusion)
chain: B1 chain with E16G, E17Q, A28K

Target: human GLP-1 receptor (human) (UniProt P43220)
Sequence (P43220 24-463): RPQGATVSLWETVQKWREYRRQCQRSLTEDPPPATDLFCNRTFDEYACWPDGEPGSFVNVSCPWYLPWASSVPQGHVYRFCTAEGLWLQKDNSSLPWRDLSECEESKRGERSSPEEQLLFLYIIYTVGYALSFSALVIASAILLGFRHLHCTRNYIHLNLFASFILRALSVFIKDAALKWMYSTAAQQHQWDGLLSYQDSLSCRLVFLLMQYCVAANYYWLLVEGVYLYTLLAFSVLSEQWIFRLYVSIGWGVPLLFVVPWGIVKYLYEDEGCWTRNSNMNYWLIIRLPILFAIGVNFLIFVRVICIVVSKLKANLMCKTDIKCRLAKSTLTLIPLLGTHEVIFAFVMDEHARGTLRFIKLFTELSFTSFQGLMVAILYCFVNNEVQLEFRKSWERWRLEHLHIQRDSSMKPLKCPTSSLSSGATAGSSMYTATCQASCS
Test: cell-based or functional assay

Row | Binder | cAMP EC50 [nM] | cAMP EC50, Batch 1 [nM] | cAMP EC50, Batch 2 [nM] | cAMP EC50, Batch 3 [nM]
1 | B1 | 0.032 | – | – | –
2 | B2 | – | 0.064 | – | –
3 | B3 | – | 0.067 | – | –
4 | B4 | 0.78 | – | – | –
5 | B5 | 0.069 | – | – | –
6 | B6 | – | 0.036 | – | –
7 | B7 | 0.53 | – | – | –
8 | B8 | 0.23 | – | – | –
9 | B9 | 1.6 | – | – | –
10 | B10 | – | 0.037 | – | –
11 | B11 | – | 500 | – | –
12 | B12 | – | – | 0.04 | –
13 | B13 | – | 0.057 | – | –
14 | B14 | – | 0.043 | – | –
15 | B15 | 850 | – | – | –
16 | B16 | > 317 | – | 4200 | > 6350

Row | Binder | cAMP EC50 [nM] | cAMP EC50, Batch 1 [nM] | cAMP EC50, Batch 2 [nM] | cAMP EC50, Batch 3 [nM]
17 | B17 | 4100 | – | – | –
18 | B18 | – | 0.049 | – | –
19 | B19 | – | 0.061 | – | –
20 | B20 | – | 0.058 | – | –
21 | B21 | – | 0.073 | – | –
22 | B22 | 0.25 | – | – | –
23 | B23 | 0.082 | – | – | –
24 | B24 | – | 0.061 | – | –
25 | B25 | > 17.2 | – | – | –
26 | B26 | > 59 | – | – | –
27 | B27 | > 166 | – | – | –
28 | B28 | 0.57 | – | – | –
29 | B29 | 0.033 | – | – | –
30 | B30 | 0.6 | – | – | –
31 | B31 | – | 0.042 | – | –

Target: T1, mouse GIP receptor (mouse) (UniProt Q0P543)
T1 sequence (looked up): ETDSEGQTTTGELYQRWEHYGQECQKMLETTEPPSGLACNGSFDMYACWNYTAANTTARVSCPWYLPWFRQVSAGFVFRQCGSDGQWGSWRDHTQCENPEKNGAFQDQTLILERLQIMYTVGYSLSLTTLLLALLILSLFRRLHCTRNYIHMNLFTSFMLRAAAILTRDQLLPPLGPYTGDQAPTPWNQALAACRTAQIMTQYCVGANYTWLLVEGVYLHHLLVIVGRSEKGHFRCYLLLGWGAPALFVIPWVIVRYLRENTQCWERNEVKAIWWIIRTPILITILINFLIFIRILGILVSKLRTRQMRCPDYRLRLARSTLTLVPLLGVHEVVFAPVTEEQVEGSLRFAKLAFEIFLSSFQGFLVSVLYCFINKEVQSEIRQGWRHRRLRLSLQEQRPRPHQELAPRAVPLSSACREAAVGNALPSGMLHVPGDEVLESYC
Test: cell-based or functional assay

Row | Binder | cAMP EC50, Batch 1 [nM] | cAMP EC50 [nM]
32 | B16 | 0.022 | –
33 | B22 | – | 2.3
34 | B23 | – | 2.6
35 | B25 | – | 0.05
36 | B26 | – | 0.012
37 | B27 | – | 0.38

Target: T2, human GIP receptor (human) (UniProt P48546)
T2 sequence (looked up): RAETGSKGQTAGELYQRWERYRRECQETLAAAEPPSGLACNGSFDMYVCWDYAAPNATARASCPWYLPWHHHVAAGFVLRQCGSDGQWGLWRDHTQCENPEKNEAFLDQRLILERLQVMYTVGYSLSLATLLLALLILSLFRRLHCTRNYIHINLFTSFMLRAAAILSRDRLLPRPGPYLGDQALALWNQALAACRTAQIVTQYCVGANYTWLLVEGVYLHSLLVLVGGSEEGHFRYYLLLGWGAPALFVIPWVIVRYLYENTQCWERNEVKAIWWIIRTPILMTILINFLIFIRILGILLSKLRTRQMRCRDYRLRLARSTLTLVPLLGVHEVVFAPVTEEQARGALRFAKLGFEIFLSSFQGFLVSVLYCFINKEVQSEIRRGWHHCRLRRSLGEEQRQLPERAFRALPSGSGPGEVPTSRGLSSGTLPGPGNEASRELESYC
Test: cell-based or functional assay

Row | Binder | cAMP EC50 [nM] | cAMP EC50, Batch 1 [nM] | cAMP EC50, Batch 2 | cAMP EC50, Batch 3 [nM] | cAMP EC50, hGIPr (C3) line [nM]
38 | B1 | 460 | – | – | – | –
39 | B2 | – | 450 | – | – | –
40 | B4 | 0.18 | – | – | – | –
41 | B7 | 0.39 | – | – | – | –
42 | B8 | 1.2 | – | – | – | –
43 | B9 | 17 | – | – | – | –
44 | B10 | – | 540 | – | – | –
45 | B11 | – | 0.0038 | – | – | –
46 | B12 | – | – | 81 nM | – | –
47 | B15 | 0.12 | – | – | – | –
48 | B16 | – | 0.0026 | 0.0051 nM and 0.0093 nM | 0.0064 | 0.8
49 | B17 | 0.0078 | 0.0085 | – | – | –
50 | B18 | – | 83 | – | – | –
51 | B20 | – | 310 | – | – | –
52 | GGGGGSGGGGSGGGGSGGGGSATHTCPPC (Fc fusion, not shown: a dimerising Fc or GST) [IP288] | 2300 | – | – | – | –
53 | B26 | – | – | – | – | 1.8
54 | B28 | 0.35 | – | – | – | –
55 | B29 | 16 | – | – | – | –
56 | B30 | 0.42 | – | – | – | –
57 | B31 | – | 110 | – | – | –

Target: T3, rat GIP receptor (rat) (UniProt P43219)
T3 sequence (looked up): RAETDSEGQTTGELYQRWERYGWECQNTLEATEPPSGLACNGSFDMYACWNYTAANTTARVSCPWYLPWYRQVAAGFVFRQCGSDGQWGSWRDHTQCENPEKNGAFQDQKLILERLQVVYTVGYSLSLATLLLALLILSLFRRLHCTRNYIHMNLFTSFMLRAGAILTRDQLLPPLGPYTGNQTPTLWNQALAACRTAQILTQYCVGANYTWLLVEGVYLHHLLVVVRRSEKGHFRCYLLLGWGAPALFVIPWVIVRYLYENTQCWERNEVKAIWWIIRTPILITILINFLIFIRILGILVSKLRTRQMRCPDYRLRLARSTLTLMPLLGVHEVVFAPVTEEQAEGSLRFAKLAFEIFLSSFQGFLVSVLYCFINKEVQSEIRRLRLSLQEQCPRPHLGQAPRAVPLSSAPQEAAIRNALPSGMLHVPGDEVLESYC
Test: cell-based or functional assay

Row | Binder | cAMP EC50, Batch 1 [nM]
58 | B16 | 0.0076

Target: human glucagon receptor (human) (UniProt P47871)
Sequence (P47871 26-477): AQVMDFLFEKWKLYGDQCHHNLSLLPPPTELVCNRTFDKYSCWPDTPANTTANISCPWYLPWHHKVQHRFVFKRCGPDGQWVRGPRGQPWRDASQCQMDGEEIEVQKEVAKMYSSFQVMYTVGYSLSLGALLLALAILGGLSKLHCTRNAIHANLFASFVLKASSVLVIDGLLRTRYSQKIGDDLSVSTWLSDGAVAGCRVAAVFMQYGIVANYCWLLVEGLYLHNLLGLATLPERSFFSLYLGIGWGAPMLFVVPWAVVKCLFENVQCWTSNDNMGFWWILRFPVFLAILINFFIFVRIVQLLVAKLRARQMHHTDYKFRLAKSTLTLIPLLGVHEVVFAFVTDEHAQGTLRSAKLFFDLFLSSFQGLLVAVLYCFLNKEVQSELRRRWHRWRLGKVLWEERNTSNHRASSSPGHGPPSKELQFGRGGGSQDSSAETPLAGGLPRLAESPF
Test: cell-based or functional assay

Row | Binder | cAMP EC50, Batch 1 [nM] | cAMP EC50 [nM] | cAMP EC50, Batch 2 [nM] | cAMP EC50, Batch 3 [nM]
59 | B2 | 780 | – | – | –
60 | B11 | 350 | – | – | –
61 | B16 | – | > 317 | 480 | 720
62 | B17 | – | 900 | – | –
63 | B18 | 650 | – | – | –
64 | B22 | – | > 163 | – | –
65 | B23 | – | 21 | – | –
66 | B25 | – | > 17.2 | – | –
67 | B26 | – | > 59 | – | –
68 | B27 | – | > 166 | – | –
69 | B31 | > 650 | – | – | –
